Experimental data as given in patent US10808249B2, “Methods and compositions for weed control” (Monsanto Technology LLC, priority 2011, dated 2020).

System: Glyphosate-sensitive Palmer amaranth (A. palmeri R-22) plants
Experiment: Palmer amaranth pre-treated with PDS trigger oligonucleotides, then norflurazon
Format: in vivo, Amaranthus palmeri
Conditions: mixture of oligonucleotides incl. SEQ ID NO: 2137 at 0.8 nmol, 0.5% Silwet L-77; norflurazon 675 g ai/ha 24 and 48 h later; compared with norflurazon alone
Procedure: Glyphosate-sensitive Palmer amaranth (A. palmeri R-22) plants were grown in the greenhouse (30/20 C day/night T; 14 hour photoperiod) in 4 inch square pots containing Sun Gro® Redi-Earth and 3.5 kg/cubic meter Osmocote® 14-14-14 fertilizer. Palmer amaranth plants at 5 to 10 cm in height were pre-treated with a mixture of oligonucleotides one of which was a SEQ ID NO: 2137 at 0.8 nmol comprising at least one oligonucleotide targeting PDS coding or noncoding regions, formulated in 10 millimolar sodium phosphate buffer (pH 6.8) containing 2% ammonium sulfate and 0.5% Silwet L-77. Plants were treated manually by pipetting 10 μL of polynucleotide solution on four fully expanded mature leaves, for a total of 40 microliters of solution per plant. Twenty-four and forty-eight hours later, the plants were treated with norflurazon (Solicam®, Syngenta, Greensboro, N.C.) at 675 g ai/ha, crop oil concentrate (COC) at 1% is added to the herbicide treatments. Four replications of each treatment was conducted. Plant height is determined just before ssDNA treatment and at intervals upto twelve days after herbicide treatments to determine effect of the oligonucleotide and herbicide treatments.

B1: SEQ ID NO: 2137: ssDNA trigger oligonucleotide targeting PDS, one of a mixture applied to Palmer amaranth before norflurazon (nucleic acid, listed as Amaranthus palmeri)
antisense: ACCGAUUCCUGCAGGAGAAACAUGGUUCUAAGAUGGCCUUCCUAGACGGAAACCCUCCAGAGAGGCUGUGCAUGCCUAUUGUUAAACACAUCGAGUCACUAGGUGGUGAAGUUAAACUUAACUCUCGUAUACAAAAGAUUCAGUUGGACCAGAGUGGAAGCGUGAAGAGUUUUUUGCUAAAUAACGGGAGG
injury to the plants (FIG. 1): more injury to the plants than the norflurazon alone
